Earlier results as cited in PMC3430373.

Target: S10:NusB complex (Escherichia coli) (UniProt C4ZUH6)
Assay: NMR

Substance: NusG CTD (from UniProt P0AFG0)
- Kd: 50 µM
